Substrate in series [1]: NC(=O)C1=CN([C@@H]2O[C@H](COP(=O)(O)OP(=O)(O)OC[C@H]3O[C@@H](n4cnc5c(N)ncnc54)[C@H](O)[C@@H]3O)[C@@H](O)[C@H]2O)C=CC1
Nature of the series: purified protein. It is filed as biochemical, Thermochaetoides thermophila. The following applies: 0.5 M D-xylose, 50 mM bis-tris pH 6.5, 30 °C, varied: cofactor.

Substrate in series [2]: NC(=O)C1=CN([C@@H]2O[C@H](COP(=O)(O)OP(=O)(O)OC[C@H]3O[C@@H](n4cnc5c(N)ncnc54)[C@H](OP(=O)(O)O)[C@@H]3O)[C@@H](O)[C@H]2O)C=CC1
In words: purified protein. The following applies: 0.5 M D-xylose, 50 mM bis-tris pH 6.5, 30 °C, varied: cofactor. Format: biochemical, Thermochaetoides thermophila.

B1: CtXR; xylose reductase from Chaetomium thermophilum (Thermochaetoides thermophila DSM 1495) (protein)
chain: MAPQIPNIKLSSGYDMPQVGFGLWKVDRSICADVVYNAIKIGYRLFDGACDYGNEVEAGQGIARAIKEGIVKREELFIVSKLWNTFHDGDKVEPIVRKQLADWGIDYFDLYLVHFPVALEYVDPSVRYPPGWFYDGEKEIRPSKATIQETWTAMESLVEKGLARSIGVSNFQAQLLYDLLRYAKIRPATLQIEHHPFLVQQELLNLAKAEGIAVTAYSSFGPQSFLEFNMKHAVQLTPLFEDETIKKIAAKYNRPASQVLLRWATQRGLAIIPKSTRPEIMKSNLESIEFDLSEEDIATISAFDRGLRFNQPTNYFPTEHLWIFG
notes: full-length ORF, codon optimized, pET28a, C-terminal His6 tag kept, E. coli BL21(DE3), IMAC and SEC; theoretical mass 39,244 Da; oligomer not determined (XRs commonly dimers)
What is called Km is the concentration of substrate that gives half-maximal velocity. As a reminder, the kcat is the number of substrate molecules converted per active site and unit of time at saturation. As usually defined, the kcat/Km is the second-order rate constant that governs catalysis at low substrate concentration. As for B1, in series [1], the Km is 119 ± 6 µM, the kcat worked out at 3.2 ± 0.1 s⁻¹ and the kcat/Km turned out to be 26700 ± 1670 M⁻¹ s⁻¹. In addition, in series [2], the Km turned out to be 135 ± 44 µM, the kcat came out at 11.4 ± 1.1 s⁻¹ and the kcat/Km amounted to 85000 ± 28300 M⁻¹ s⁻¹.

(Values after article PMC6337131, “Kinetics and Predicted Structure of a Novel Xylose Reductase from Chaetomium thermophilum” (International Journal of Molecular Sciences, 2019).)
